Reference: patent US20190241886A1 (ADAGENE, published 2019)
Substitutions are numbered along the chain they refer to.

T1: Recombinant human CTLA4-Fc (human, UniProt P16410 36-161, limits assumed)
T1 construct: Coated on the ELISA plate at 1 ug/mL; also called antigen; not shown: Fc part
T1 sequence (looked up): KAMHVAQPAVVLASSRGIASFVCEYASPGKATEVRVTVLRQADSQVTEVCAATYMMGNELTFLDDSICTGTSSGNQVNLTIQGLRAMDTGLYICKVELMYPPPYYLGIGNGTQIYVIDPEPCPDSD

B1: TY22404 (antibody, IgG1, V domains shown)
VH: EVQLVESGGGLVQPGGSLRLSCAASGYSISSGYHWSWIRQAPGKGLEWLARIDWDDDKYYSTSLKSRLTISRDNSKNTLYLQLNSLRAEDTAVYYCARSYVYFDYWGQGTLVTVSS
VL: EVGSYPNPSSDCVPYYYACAYSGRSAGGGGSPLGLAGSGGSDIQLTQSPSSLSASVGDRVTITCRASQSVRGRFLAWYQQKPGKAPKLLIYDASNRATGIPSRFSGSGSGTDFTLTISSLQPEDFATYYCQQSSSWPPTFGQGTKVEIKR
notes: IgG1 from HEK293F cells, uncleaved; also called peptide name B13197
B2: TY22402 (antibody, IgG1, V domains shown)
VH: B1 VH
VL: EVGSYIVHHSDCDAFYPYCDSSGRSAGGGGSPLGLAGSGGSDIQLTQSPSSLSASVGDRVTITCRASQSVRGRFLAWYQQKPGKAPKLLIYDASNRATGIPSRFSGSGSGTDFTLTISSLQPEDFATYYCQQSSSWPPTFGQGTKVEIKR
notes: IgG1 from HEK293F cells, uncleaved; also called peptide name B13180
B3: TY22401 (antibody, V domains shown)
VH: B1 VH
VL: EVGSYNFVADSCPDHPYPCSASGRSAGGGGSPLGLAGSGGSDIQLTQSPSSLSASVGDRVTITCRASQSVRGRFLAWYQQKPGKAPKLLIYDASNRATGIPSRFSGSGSGTDFTLTISSLQPEDFATYYCQQSSSWPPTFGQGTKVEIKR
notes: IgG1 from HEK293F cells, uncleaved; also called peptide name B13189
B4: TY22402 (as listed in Table 11) (antibody, V domains shown)
VH: B1 VH
VL: B2 VL with S31T
notes: kept apart from m3; Expressed in mammalian cells; isotype not restated
B5: TY22404 (as listed in Tables 11 and 14) (antibody, V domains shown)
VH: B1 VH
VL: B1 VL with S31T
notes: kept apart from m5; Expressed in mammalian cells; isotype not restated
B6: TY21242 (antibody, V domains shown)
VH: EVQLVESGGGLVQPGGSLRLSCAASGFSLSTGGVGVGWIRQAPGKGLEWLALIDWADDKYYSPSLKSRLTISRDNSKNTLYLQLNSLRAEDTAVYYCARGGSDTVIGDWFAYWGQGTLVTVSS
VL: DIQLTQSPSSLSASVGDRVTITCRASQSIGSYLAWYQQKPGKAPKLLIYDASNLETGVPSRFSGSGSGTDFTLTISSLQPEDFATYYCQQGYYLWTFGQGTKVEIK
notes: Anti-human-CD137 antibody; the isotype of the parent is not restated; also called parental antibody TY21242; parental CD137 antibody
B7: TY22591 (antibody, V domains shown)
VH: B6 VH
VL: EVGSYSSTHAHCHHSPANCISSGRSAGGGGSPLGLAGSGGSDIQLTQSPSSLSASVGDRVTITCRASQSIGSYLAWYQQKPGKAPKLLIYDASNLETGVPSRFSGSGSGTDFTLTISSLQPEDFATYYCQQGYYLWTFGQGTKVEIK
notes: Full IgG4 expressed in mammalian cells, uncleaved
B8: TY22596 (antibody, V domains shown)
VH: B6 VH
VL: EVGSYYHDYDDCRVLPRRCFNSGRSAGGGGSPLGLAGSGGSDIQLTQSPSSLSASVGDRVTITCRASQSIGSYLAWYQQKPGKAPKLLIYDASNLETGVPSRFSGSGSGTDFTLTISSLQPEDFATYYCQQGYYLWTFGQGTKVEIK
notes: as for B7
B9: TY22594 (antibody, V domains shown)
VH: B6 VH
VL: B8 VL with Y6D, H7T, D11F, R13P, V14I, P16R, R17H, F20D, N21S
notes: as for B7
B10: TY22595 (antibody, V domains shown)
VH: B6 VH
VL: EVGSYNDYNYHCKWRPSRCHNSGRSAGGGGSPLGLAGSGGSDIQLTQSPSSLSASVGDRVTITCRASQSIGSYLAWYQQKPGKAPKLLIYDASNLETGVPSRFSGSGSGTDFTLTISSLQPEDFATYYCQQGYYLWTFGQGTKVEIK
notes: as for B7
B11: TY22599 (antibody, V domains shown)
VH: B6 VH
VL: B8 VL with Y6T, H7D, D8N, D11Y, R13P, V14R, P16R, R18K, F20Y, N21H
notes: as for B7
B12: TY22598 (antibody, V domains shown)
VH: B6 VH
VL: EVGSYSNNFASCLWRHRSCADSGRSAGGGGSPLGLAGSGGSDIQLTQSPSSLSASVGDRVTITCRASQSIGSYLAWYQQKPGKAPKLLIYDASNLETGVPSRFSGSGSGTDFTLTISSLQPEDFATYYCQQGYYLWTFGQGTKVEIK
notes: as for B7
B13: TY22565 (antibody, V domains shown)
VH: B1 VH
VL: B1 VL with N7Q
notes: IgG1, uncleaved; mask derived from B13192 or B13197 to remove a potential glycosylation site
B14: TY22566 (antibody, V domains shown)
VH: B1 VH
VL: B1 VL with S9A
notes: as for B13
B15: TY22563 (antibody, V domains shown)
VH: B1 VH
VL: B2 VL with I6Y, V7S, H8A, H9Y, S10P, D11A, A14S, F15H, D20Q
notes: as for B13
B16: TY22564 (antibody, V domains shown)
VH: B1 VH
VL: B2 VL with I6Y, V7S, H8A, H9Y, S10P, D11A, A14S, F15H, D20N, S22A
notes: as for B13
B17: TY22586 (antibody, V domains shown)
VH: B6 VH
VL: EVGSYPTDLDACADAPNHCHFSGRSAGGGGSPLGLAGSGGSDIQLTQSPSSLSASVGDRVTITCRASQSIGSYLAWYQQKPGKAPKLLIYDASNLETGVPSRFSGSGSGTDFTLTISSLQPEDFATYYCQQGYYLWTFGQGTKVEIK
notes: as for B7

target: T1, Recombinant human CTLA4-Fc; test: ELISA EC50 divided by EC50 of parental TY21580, data batch 2
Method: (§1) Recombinant human CTLA4-Fc was diluted to 1μg/mL in PBS and coated on a Maxisorp plate at 4° C. overnight. Plates were blocked with PBS supplemented with 3% non-fat milk at 37° C. for 1 hour. After washing, 100 μL of 3-fold serial dilutions of antibodies were added to each well. After incubation at 37° C. for 1 hour, plates were washed four times, and 100 μL HRP conjugated anti-human IgG (Fab specific) (1:6000 dilution) was added to each well. Plates were incubated at 37° C. for 1 hour, washed four times, and then 50 μL TMB substrate solution was added to each well, and the plate was incubated at room temperature. Absorbance at 450 nm was measured after the reactions were stopped with 50 μL H₂SO₄ per well. The EC₅₀ was evaluated by fitting the ELISA data using the asymmetrical sigmoidal (five-parameter logistic equation) model of GraphPad Prism 6 software.

Point of comparison: B1, Masking efficiency 385. Against it:
- B2 — lower, 377
- B3 — lower, 48

target: T1, Recombinant human CTLA4-Fc; test: ELISA EC50 divided by EC50 of parental TY21580 (FIG. 24B)
Method: as §1

Point of comparison: B5, Masking efficiency 572. Against it:
- B4 — lower, 554

target: T2, Human CD137 displayed on yeast cells (human, UniProt Q07011 24-186, limits assumed); test: flow cytometry on yeast cells displaying human CD137; column headed EC50 / KD (nM)
T2 construct: Yeast cells displaying human CD137, stained with serial dilutions of antibody; also called human CD137 on the cell surface
Method: (§2) The masking efficiency was then measured through flow cytometry. Briefly, yeast cells displaying human CD137 on their surface washed twice with PB SA buffer, and 50 μL (1×10̂6) cells were dispensed into each well of a 96 well plate. Cells were then incubated with 3-fold serial dilutions of antibodies for 1 hour on ice, washed once with PBSA buffer, and then incubated with 100 μL of PE conjugated mouse anti-human Fc (1 μg/ml) for 30 minutes on ice. The cells were then washed once prior to analysis by flow cytometry (Beckman® CytoFlex).

Point of comparison: B11, EC50 98.1 nM. Against it:
- B6 — 350-fold lower, 0.28 nM
- B7 — 9.1-fold lower, 10.8 nM
- B8 — 17-fold lower, 5.86 nM
- B9 — 4.2-fold lower, 23.6 nM
- B10 — within 1.5-fold, 107 nM
- B12 — 11-fold lower, 8.61 nM

target: T1, Recombinant human CTLA4-Fc; test: ELISA EC50 divided by EC50 of parental TY21580, third block of Table 6
Method: as §1

Point of comparison: B14, Masking efficiency 489. Against it:
- B13 — higher, 632
- B15 — lower, 144
- B16 — lower, 117

target: T1, Recombinant human CTLA4-Fc; test: ELISA EC50 divided by EC50 of parental TY21580, data batch 1
Method: as §1

Point of comparison: B1, Masking efficiency 826. Against it:
- B2 — higher, 2210
- B3 — lower, 110

target: T2, Human CD137 displayed on yeast cells; test: flow cytometry on yeast cells displaying human CD137; ratio to parental TY21242
Method: as §2

Point of comparison: B6, Masking efficiency 1. Against it:
- B7 — higher, 38.3
- B8 — higher, 20.8
- B9 — higher, 83.7
- B10 — higher, 379
- B11 — higher, 348
- B12 — higher, 30.5

Binder B17 has a Masking efficiency of 300 fold.

target: T1, Recombinant human CTLA4-Fc; test: ELISA EC50 divided by EC50 of parental TY21580 (FIG. 25)
Method: as §1

Work on B5 yielded a Masking efficiency of 469.

target: T1, Recombinant human CTLA4-Fc; test: ELISA EC50 divided by EC50 of parental TY21580 (FIG. 24A)
Method: as §1

Point of comparison: B5, Masking efficiency 308. Against it:
- B4 — lower, 243
